# Test results as given in the supplement of paper PMC9170038.
# System: MS2 coat protein
# Experiment: apparent KD of MS2 coat protein; designed switch direction (-1 OFF switch, 1 ON switch): -1; higher = weaker reporter binding
# How it was run: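 Designed RNA switches were transcribed on Illumina chips by stalled E. coli RNA polymerase and titrated with SNAP-549-labelled MS2 coat protein from 0.7 or 1.5 nM, doubling to 3 µM. Step length ran from 0.8–1.5 h at the lowest concentration to 10–20 min at the highest. The apparent KD is the median over clusters for each design, from curve-fitted normalised cluster fluorescence.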
# [1] = Eterna round: R95, input ligand: FMN 200 uM
# [2] = Eterna round: R95, input ligand: microRNA oligo, concentration not stated
# [3] = Eterna round: R95, input ligand: none
# [4] = input ligand: microRNA oligo, concentration not stated
Sequence,apparent KD of MS2 coat protein (input ligand: FMN 200 uM) [nM],apparent KD of MS2 coat protein (input ligand: none) [nM],apparent KD of MS2 coat protein [1] [nM],apparent KD of MS2 coat protein [2] [nM],apparent KD of MS2 coat protein [3] [nM],apparent KD of MS2 coat protein [4] [nM]
"ACAAGCUUUUAGAUUUUCAACAUGAGGAUCACCCAUGUUCGUCUUGGGCUAGUGCGAGUGCGGUGUACUCGUAUUAG [JL TOV1 3.83 sellena mod] (Eterna round: R97, puzzle: Sensor, turn-off variant 1)",23.2,23.4,,,,
"ACAAGCUUUUCGAUCCUCCACAUGAGGAUCACCCAUGUGCUCGACUUGUAAAGUACUAUCACGAAAGUGAUAGUACA [Sensor, turn off variant 1 v.1] (Eterna round: R97, puzzle: Sensor, turn-off variant 1)",455,629,,,,
"ACAAGCUUUUUGCAUGUUAGGUUUGUUGCUUCGUAUGUAACAUGAGGAUCACCCAUGUAUUACUGAUGUCGUCGUUU [JR_SV3TOV2_Sub089] (puzzle: Sensor v3, turn-off variant 2)",,,18.4,17.2,18.2,
"ACAAGCUUUUUGUUCGUCUUAUAAUAAUAAAUAAAUAUAACAUGAGGAUCACCCAUGUUGAGAAGACGGCCUCAUGU [Sesor Array 22 - Jieux - Sensor v3, turn-off variant 2] (puzzle: Sensor v3, turn-off variant 2)",,,134,31.8,203,
"ACAAUUAUGACAGGAUAUAGUUUUUGUUGGUCACUAGAAGGGUCUAUGCACAUGAGGAUCACCCAUGUUCUUUUUAUUUGCGAU [JR_ExcNG1_Sub017] (Eterna round: R96, puzzle: Exclusion NG 1)",29.9,39.9,,,,27.1
"ACACAACAUGAGGAUCACCCAUGUCAGGAUAUGCAGAACAAGAACAAGACAAGACAGAGCAGAAGGGACAACAC [Ex 1 M5] (Eterna round: R96, puzzle: Exclusion 1)",49,36.3,,,,29.6
ACACAACAUGAGGAUCACCCAUGUCAGGAUAUGCAGAACAAGAACAAGACAAGACAGAGCAGAAGGGACAACAC [Ex 1 M5] (puzzle: Exclusion 1),,,,32.8,,
"ACACAAGCCCUUUGCUCGUUUUAAUACAGCGGGCUCUCCACAUGAGGAUCACCCAUGUAGGCCUUGUUCCAAGGCCG [Maerarce] (puzzle: Sensor v3, turn-off variant 2)",,,22.6,22.3,21.8,
"ACACACAGAGGAUAUCUUCCGCAUGACAUGAGGAUCACCCAUGUGUGCAUGCCCAAAGGUAGAGAAGGCUGUGUGU [eternacac ex5r4 #4] (Eterna round: R97, puzzle: Exclusion 5)",24.9,22.2,,,,
"ACACUACAUGUAGGAUAUGCGUGGCGAAGCUAUGCAGAAGGACAUGAGGAUCACCCAUGUUUUAGCGUCUGCGUACAGAUGCGU [JL ENG1 1.46] (Eterna round: R96, puzzle: Exclusion NG 1)",44.7,19.3,,,,16.4
"ACAGGCUUUUUGCUCGUCUACAUGAGGAUCACCCAUGUGGGAUUGUUGGUUGUGUUGCUUGUUUGUGCUCGUCUUGU [Low Nucleotide] (Eterna round: R97, puzzle: Sensor, turn-off variant 1)",16.1,17.6,,,,
"ACAGGUUUCAUAGGAUAUCUCUGACUAUGGCACUCCUUGUGUCCACAUGAGGAUCACCCAUGUCGAGAGAAGGGUGCACCUGCG [Arenena] (Eterna round: R96, puzzle: Exclusion NG 2)",147,65.7,,,,64.9
"ACAGUGUUAGGAUAUCUGAGAGUUAGUCUCGACUAGUCGAAGGAGAAGGAACAUGAGGAUCACCCAUGUAGAUC [EX4 #77] (Eterna round: R97, puzzle: Exclusion 4)",144,35.8,,,,
"ACAUAAAAGGCAGGAUAUUCAAACCCAUAGCUAGAAGAAGGGCCGAAGAACUUCUAACAUGAGGAUCACCCAUGUGAGCAUGGG [Ininesxeed] (Eterna round: R96, puzzle: Exclusion NG 1)",82.4,64.6,,,,43.9
"ACAUCACAGCUAGGAUAUAUAUGACAUGAGGAUCACCCAUGUUGUCCCAUGUUGACGAAAACCGAAUAGAAGGAGCUACAGAUG [Ex NG2 #4] (Eterna round: R96, puzzle: Exclusion NG 2)",53.2,64.2,,,,54.9
"ACAUGACAGCUAGGAUAUAUAUGACAUGAGGAUCACCCAUGUUGUCCCAUGUUGACGAAAACCGAAUAGAAGGAGCCACCCAUG [Ex NG2 #2] (Eterna round: R96, puzzle: Exclusion NG 2)",86.1,71.4,,,,53.6
"ACAUGACUGCUAGGAUAUAGAUGACAUGAGGAUCACCCAUGUUGUCCCAUGUUUAUGGAAACGGACUAGAAGGAGCAGUAUAUG [Ex NG2 #13] (Eterna round: R96, puzzle: Exclusion NG 2)",18.8,20.2,,,,26.2
"ACAUGAGGAUCACCCAUGUAAUGAUGGGUACUAUAUUAUUCGUAGGAUAUCGUUGUUAGUUUGUUCGAGAAGGACGAUUGCCUU [JR_ExcNG3_Sub054] (Eterna round: R96, puzzle: Exclusion NG 3)",612,520,,,,385
"ACAUGAGGAUCACCCAUGUACGGUUGGUUUUCUCCGGCUGUUGAGGAUAUAGUCCGGUAUCCGCGCUAGAAGGUGAGGGUUGGC [Aenatbe mod 11] (Eterna round: R96, puzzle: Exclusion NG 3)",104,87.6,,,,74.6
"ACAUGAGGAUCACCCAUGUAGACAGCUGCAACCGGUGAAAGACAGGAUAUGUGACGGCACAGGGAACAGAAGGGUCAAAGAAAA [Ceatasoes] (Eterna round: R96, puzzle: Exclusion NG 3)",21.2,30.9,,,,22
"ACAUGAGGAUCACCCAUGUCAGGCUGGUCCACUCCGGCUGUUGAGGAUAUAGCCCGGUAUCCGCGCUAGAAGGUGAGGGCCGGC [Aenatbe mod 27] (Eterna round: R96, puzzle: Exclusion NG 3)",25.5,23,,,,17.6
